Literature values as cited in publication PMC7042059.

Biological target: Pyruvate kinase M2 (Homo sapiens) (UniProt P14618)
Settings: cited from earlier work

Chain of Pyruvate kinase M2 (P14618 2-531): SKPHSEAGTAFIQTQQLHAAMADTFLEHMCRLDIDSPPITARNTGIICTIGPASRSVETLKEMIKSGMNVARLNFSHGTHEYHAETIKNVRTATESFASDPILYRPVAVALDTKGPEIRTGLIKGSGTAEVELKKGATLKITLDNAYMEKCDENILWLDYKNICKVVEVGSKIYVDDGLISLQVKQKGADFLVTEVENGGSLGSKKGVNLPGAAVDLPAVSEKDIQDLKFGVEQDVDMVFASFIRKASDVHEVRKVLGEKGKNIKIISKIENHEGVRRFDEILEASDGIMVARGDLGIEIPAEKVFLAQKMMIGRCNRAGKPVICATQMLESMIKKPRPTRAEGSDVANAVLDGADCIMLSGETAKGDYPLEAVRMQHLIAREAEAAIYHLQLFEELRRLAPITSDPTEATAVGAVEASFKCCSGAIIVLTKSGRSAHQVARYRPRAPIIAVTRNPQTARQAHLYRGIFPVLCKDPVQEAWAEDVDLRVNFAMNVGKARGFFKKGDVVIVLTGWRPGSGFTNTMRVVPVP

## Pyruvate kinase M2 (from UniProt P14618)
  Kd: 1 µM
